Experimental data from patent US20200369729A1 (CENTRE NATIONAL DE LA RECHERCHE SCIENTIFIQUE, published 2020).
*: point of attachment. Succinimide(1-Et,3-yl) = CCN1C(=O)CC(*)C1=O

B1: MUB40#3 (peptide)
peptide: Ac-C(Succinimide(1-Et,3-yl))DQMLRQDDLDGYTDETIPYSTAEGIKKFEGDGYELFKDNF-NH2
modifications: not fully specified
notes: Unlabelled peptide as used in analytical gel filtration; 'rather organized as tetramers'
B2: MUB40#1 (peptide)
peptide: Ac-C(Succinimide(1-Et,3-yl))TAEGIKKFEGDGYELFKDNFPAGEKFDNDDTNDQFYTVIF-NH2
modifications: not fully specified
notes: Unlabelled peptide as used in analytical gel filtration; trimer
B3: MUB40#2 (peptide)
peptide: Ac-C(Succinimide(1-Et,3-yl))GYTDETIPYSTAEGIKKFEGDGYELFKDNFPAGEKFDNDD-NH2
modifications: not fully specified
notes: as for B1
B4: MUB40#4 (peptide)
peptide: Ac-C(Succinimide(1-Et,3-yl))VHVQYIDGETDQMLRQDDLDGYTDETIPYSTAEGIKKFEG-NH2
modifications: not fully specified
notes: as for B1

Molecular target: the molecule itself
Test: self-association, analytical gel filtration in 20 mM phosphate buffer, 150 mM NaCl, pH 7.4
Method: (A) Schematic representation of the four 40-amino acid peptides named MUB₄₀#1, MUB₄₀#2, MUB₄₀#3, MUB₄₀#4, overlapping and covering the MUB₇₀ sequence (Coïc et al., 2012) (from C-terminal to N-terminal, see FIG. 2). (B) Human colonic mucus layer was labelled with the MUB₄₀#1-Cy5 fluorescent conjugate (1 μg/mL, magenta). (C) Colonic goblet cell granules were labelled with MUB₄₀#1-Cy5 (1 μg/mL, magenta), which was not the case for MUB₇₀-Cy5 (Coïc et al., 2012) or MUB₄₀#2-#4 peptides (data not shown). Actin (red); bar, 20 μm. (D) Elution profiles of MUB₄₀ peptides (#1-#4) were obtained by analytical gel filtration (absorbance at 280 nm). Samples were prepared at 10 μg/ml in the elution buffer (20 mM phosphate buffer, 150 mM NaCl, pH7.4). MUB₄₀#1 assembled as a trimer, similarly to MUB₇₀ (Coïc et al., 2012), not MUB₄₀#2, MUB₄₀#3, and MUB₄₀#4. […] (E) Far-UV Circular Dichroism spectra of the four MUB₄₀ peptides at 60 μM in 20 mM sodium phosphate buffer (pH 7.4) in the presence of 50 mM NaCl, showing a specific structural signal of MUB₄₀#1, compared to others peptides. (F) A human colonic explant was infected with Shigella flexneri pGFP (green) and labelled with MUB₄₀#1-Cy5 (1 μg/mL, magenta) and Dapi (blue) after fixation and permeabilization. The colonic mucus layer and infiltrated neutrophils (see (G)), were labelled with MUB₄₀#1-Cy5, as imaged by two-photon microscopy. Bar, 50 μm (G) The labelling of polymorphonuclear neutrophils with MUB₄₀#1-Cy5 (1 μg/mL, magenta) was confirmed on human purified neutrophils, showing a granular staining. Nucleus was stained with Dapi (blue). Bar, 5 μm.

Binding result, binds:
B1
B2
B3
B4
